Reference: patent US20240254220A1 (CENTRICSBIO, published 2024)

Tests used:
[1] = target: T1, CD300c antigen (11832-H08H, Sino Biological) (human, UniProt Q08708 21-183); test: binding ELISA on coated CD300c antigen (800 ng/mL), anti-Fc secondary antibody, 450 nm (Experimental Example 2.3)
T1 construct: Bought antigen; also called CD300c protein; CD300 antigen-like family member C
T1 sequence (looked up): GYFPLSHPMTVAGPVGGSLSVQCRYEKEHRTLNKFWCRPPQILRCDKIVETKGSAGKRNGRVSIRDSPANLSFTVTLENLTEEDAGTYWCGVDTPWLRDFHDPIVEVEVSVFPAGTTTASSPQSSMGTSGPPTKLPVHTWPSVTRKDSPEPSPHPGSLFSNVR
Protocol: CD300c antigen (250 ug/mL) was diluted to a concentration of 800 ng/mL in coating buffer (0.1 M sodium carbon ate, pH 9.0), placed into a 96-well microplate at 100 μL per well, and incubated at 4° C. overnight. The next day, the microplate was washed three times with 200 μL of PBST. Thereafter, 200 μL of a blocking buffer (5% skim milk) was added thereto, followed by blocking at room temperature for 1 hour. The anti-CD300c monoclonal antibody CL7 was diluted to 200 μg/mL in PBS, and the concentration thereof was checked by measurement using Nanodrop (product name: NanoDrop One/One, manufactured by Thermo Fisher Scientific). Subsequently, CL7 was diluted in quadruplicate with PBS starting from 10 μg/mL, and added at 100 μL each, followed by incubation at room temperature for 1 hour. After the incubation, the microplate was washed three times with […] of PBST. A secondary antibody (conjugated anti-Fc IgG) was diluted 1:10,000 in blocking buffer, and added at 100 μL, followed by incubation at room temperature for 1 hour, and then washed three times with 200 μL of PBST. Subsequently, TMB and hydrogen peroxide were mixed 1:1, and added at 100 μL per well, followed by incubation at room temperature for 7 to 9 minutes.

[2] = target: T1, CD300c antigen (11832-H08H, Sino …); test: binding ELISA, plate coated with CD300c antigen (8 µg/mL), HRP anti-Fc IgG detection
Protocol: In order to identify the antigen-binding ability of the anti-CD300c monoclonal antibodies produced in Example 1, binding ELISA was performed. Specifically, a CD300c antigen (11832-H08H, Sino Biological) or a CD300a antigen (12449-H08H, Sino Biological) in a coating buffer (0.1 M sodium carbonate, pH 9.0) was dispensed into an ELISA plate at a concentration of 8 μg/mL per well, followed by incubation at room temperature for 3 hours to allow the antigen to be bound to the plate. The unbound antigens were removed by washing three times using phosphate buffered saline-Tween 20 (PBST), and then 300 μL of PBST supplemented with 5% bovine serum albumin (BSA) was added to each well, followed by incubation at room temperature for 1 hour and then washing using PBST. Then, an anti-CD300c monoclonal antibody was diluted in quadruplicate and added thereto, followed by incubation for 1 hour at room temperature for antigen binding. After 1 hour, washing was performed three times using PBST to remove unbound anti-CD300c monoclonal antibody, and then 4 μg/mL of an antibody for detection (HRP conjugated anti-Fc IgG) was added, followed by incubation again at room temperature for 1 hour. Subsequently, the unbound antibody for detection was removed using PBST, and then TMB solution was added, followed by incubation for 10 minutes for development. Then, 2 N sulfuric acid solution was added to terminate the development reaction, and the absorbance was measured at 450 nm to identify the antibodies specifically binding to the CD300c antigen.

B1: CL7 (antibody, V domains shown)
VH: EVQLLESGGGLVQPGGSLRLSCAASGFTFSRYAMSWVRQAPGKGLEWVSAISGSGGSTYYADSVKGRFTISRDNSKNTLYLQMNSLRAEDTAVYYCARSSQGIFDIWGQGTLVTVSS
VL: QSVLTQPPSASGTPGQRVTISCSGNNIGTRRVHWYQQLPDTAPKLLIYSKNNRPSGVPDRFSGSKSGTSASLAISGLRSEDEADYYCAAWDDSLSGPVFGGGTKLTVL
notes: detected with anti-human IgG (H+L) and anti-Fc IgG; also called anti-CD300c monoclonal antibody CL7; anti-CD300c monoclonal antibody (CL7)
- EC50 (read off the curve) [1]: ~0.06 µg/mL
- EC50 [2]: 0.047 µg/mL
